According to paper PMC5669500, “Scaffolding the cup-shaped double membrane in autophagy” (PLoS Computational Biology, 2017):
Positions count from the first letter of the chain named.

Assays:
Test in all cases: pull-down; 20 μg GST-Atg13 (351–458) immobilised on 30 μL Glutathione Sepharose 4B; Atg17-Atg31-Atg29 complex at 10 μM; 4°C, 1 hour; 20 mM Tris pH 8, 150 mM NaCl, 0.1 mM TCEP; 3 washes; SDS-PAGE
Details in all cases: both partners purified
[1] = molecular target: T1, Atg17-Atg31-Atg29 complex with Atg17 mutant M5 (K92D/L141D) (Saccharomyces cerevisiae, UniProt Q06410 1-417; Q12421 1-196; Q12092 1-213, K92D | L141D)
T1 construct: Atg17, Saccharomyces cerevisiae; Atg31, Saccharomyces cerevisiae; Atg29, Saccharomyces cerevisiae; a TEV cleavage site follows the His6 tag; Mutations introduced into the Atg17-Atg31-Atg29 construct by quick-change mutagenesis; source: E. coli BL21 (DE3), co-expressed from pST39, purified (Ni-NTA, Superose 6); copies: 2 + +
T1 sequence (looked up) 1: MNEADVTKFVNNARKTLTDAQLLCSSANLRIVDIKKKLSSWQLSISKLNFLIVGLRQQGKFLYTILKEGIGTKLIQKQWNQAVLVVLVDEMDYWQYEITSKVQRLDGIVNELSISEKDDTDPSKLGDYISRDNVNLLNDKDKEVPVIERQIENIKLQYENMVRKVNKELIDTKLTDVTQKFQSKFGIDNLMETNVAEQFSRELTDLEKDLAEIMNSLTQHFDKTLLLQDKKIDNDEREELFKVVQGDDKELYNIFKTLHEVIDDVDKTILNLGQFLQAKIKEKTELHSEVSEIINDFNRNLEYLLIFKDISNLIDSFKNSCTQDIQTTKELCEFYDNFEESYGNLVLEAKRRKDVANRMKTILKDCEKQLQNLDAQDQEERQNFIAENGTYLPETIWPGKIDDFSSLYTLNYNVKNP
T1 sequence (looked up) 2: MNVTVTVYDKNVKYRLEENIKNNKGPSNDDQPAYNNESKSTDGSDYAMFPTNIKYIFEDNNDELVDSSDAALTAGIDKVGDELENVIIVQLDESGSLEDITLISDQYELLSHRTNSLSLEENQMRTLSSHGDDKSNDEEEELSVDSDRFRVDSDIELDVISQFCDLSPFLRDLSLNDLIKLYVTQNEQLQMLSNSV
T1 sequence (looked up) 3: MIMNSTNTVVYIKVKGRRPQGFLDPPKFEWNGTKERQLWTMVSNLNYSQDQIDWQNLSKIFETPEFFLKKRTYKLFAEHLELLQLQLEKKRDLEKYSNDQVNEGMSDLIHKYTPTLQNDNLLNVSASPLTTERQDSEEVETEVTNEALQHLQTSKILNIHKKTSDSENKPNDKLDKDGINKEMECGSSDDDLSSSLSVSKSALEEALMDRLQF

[2] = molecular target: T2, Atg17-Atg31-Atg29 complex with Atg17 mutant M1 (K318D/Q326D/K329D) (Saccharomyces cerevisiae, UniProt Q06410 1-417; Q12421 1-196; Q12092 1-213, K318D | Q326D | K329D)
T2 construct: Atg17, Saccharomyces cerevisiae; Atg31, Saccharomyces cerevisiae; Atg29, Saccharomyces cerevisiae; a TEV cleavage site follows the His6 tag; Mutations introduced into the Atg17-Atg31-Atg29 construct by quick-change mutagenesis; source: E. coli BL21 (DE3), co-expressed from pST39, purified (Ni-NTA, Superose 6); copies: 2 + +
T2 sequence (looked up) 1: T1 sequence (looked up) 1 with D92K, D141L, K318D, Q326D, K329D
T2 sequence (looked up) 2: T1 sequence (looked up) 2
T2 sequence (looked up) 3: T1 sequence (looked up) 3

[3] = molecular target: T3, Atg17-Atg31-Atg29 complex with Atg17 mutant M2 (K318D/K329D/Y93E/W94E) (Saccharomyces cerevisiae, UniProt Q06410 1-417; Q12421 1-196; Q12092 1-213, K318D | K329D | Y93E | W94E)
T3 construct: Atg17, Saccharomyces cerevisiae; Atg31, Saccharomyces cerevisiae; Atg29, Saccharomyces cerevisiae; a TEV cleavage site follows the His6 tag; Mutations introduced into the Atg17-Atg31-Atg29 construct by quick-change mutagenesis; source: E. coli BL21 (DE3), co-expressed from pST39, purified (Ni-NTA, Superose 6); copies: 2 + +
T3 sequence (looked up) 1: T1 sequence (looked up) 1 with D92K, Y93E, W94E, D141L, K318D, K329D
T3 sequence (looked up) 2: T1 sequence (looked up) 2
T3 sequence (looked up) 3: T1 sequence (looked up) 3

Measured: binding result

B1: GST-Atg13 (351–458) (domain or fragment, Saccharomyces cerevisiae, UniProt Q06628 351-458, looked up)
chain: TRANSFEPQSWQKKVYPISRPVQPFKVGSIGSQSASRNPSNSSFFNQPPVHRPSMSSNYGPQMNIEGTSVGSTSKYSSSFGNIRRHSSVKTTENAEKVSKAVKSPLQP
notes: a TEV cleavage site follows the GST tag; source: recombinant from pGST2 vector, purified (Glutathione Sepharose 4B, HiLoad Superdex 200 16/60); not shown: GST, N-terminal, kept
binds: all assays above
